Test results: patent publication US20250177482

What was measured:
[1] = tested on: CFI-HSA (human serum albumin fused to the N-terminal end of wild type CFI)
[2] = tested on: Complement Component 3b (C3b) in vitreous humor of African Green Monkeys

Substance	activation (cleavage of CFI-HSA into its activated form) [1]	ratio of C3b/iC3b in vitreous humor (chemiluminescent western blot, densitometry) [2]
recombinant furin	more than 90% activation of the protein	
CFI-HSA (human serum albumin fused to the N-terminal end of wild type CFI)		showing a significant increase in cleavage in eyes receiveing a 1.0 mg injection of CFI-HSA compared to vehicle controls
